Measured values taken from PMC7959569.

Target: Med25 AcID, Med25(394-543)-His6 (UniProt Q71SY5)
Test: stopped-flow fluorescence transient kinetics

Med25 AcID, Med25(394-543)-His6, sequence (Q71SY5 394-543): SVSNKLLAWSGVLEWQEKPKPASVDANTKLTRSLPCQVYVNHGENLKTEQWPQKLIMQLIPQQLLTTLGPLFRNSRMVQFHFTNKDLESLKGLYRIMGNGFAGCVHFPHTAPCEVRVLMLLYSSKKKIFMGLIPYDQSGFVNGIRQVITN

fold gain in affinity against the parent TAD [fold]	Substance
1.7	ETV1^∆Nt TAD with 4-DMN on the N terminus (from UniProt P50549 42-477) (peptide)
1.7	ETV4^∆Nt TAD with 4-DMN on the N terminus (from UniProt P43268 49-484) (peptide)
